# Results from article doi:10.1101/2022.09.01.506260 (bioRxiv, 2022).
# Square brackets hold non-standard residues; d marks the D form. pT = C[C@@H](OP(=O)(O)O)[C@H](N)C(=O)O; pS = N[C@@H](COP(=O)(O)O)C(=O)O
# T1: human 14-3-3ε (human, UniProt P62258-1 1-255)
# T1 sequence: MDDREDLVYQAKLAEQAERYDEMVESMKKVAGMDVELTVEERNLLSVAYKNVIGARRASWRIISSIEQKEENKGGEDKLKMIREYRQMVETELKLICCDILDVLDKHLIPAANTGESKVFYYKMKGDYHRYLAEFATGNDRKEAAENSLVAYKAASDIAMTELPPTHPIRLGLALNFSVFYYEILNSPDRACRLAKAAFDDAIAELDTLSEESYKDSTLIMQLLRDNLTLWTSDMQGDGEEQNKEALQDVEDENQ
# B1: PEAK3^tandem peptide, non-phosphorylated (residues 54-74) (peptide)
# peptide: Ac-PLPPPLPKKILTRTQSLPTRR-NH2
# B2: CrkII NSH3 domain (CrkII^NSH3) (domain or fragment)
# chain: AEYVRALFDFNGNDEEDLPFKKGDILRIRDKPEEQWWNAEDSEGKRGMIPVPYVEKYR
# Tests used:
# [1] = target: B2; test: SPR
# SEC [2] = target: the molecule itself; test: SEC
# human 14-3-3ε = target: T1, human 14-3-3ε; test: SPR
# SEC [3] = target: the molecule itself; test: SEC; remark: listed apart in the source
# [4] = target: B1; test: ITC
# SEC-MALS = target: the molecule itself; test: SEC-MALS
binder,measurement,setting,value
Ac-PTPPPLPKKMIIR-NH2 [PEAK1 1150-1162 proline-rich motif peptide],binding result,[1],binds
"PEAK2^IDR1 (N-terminally truncated PEAK2, residues 802-1406) (domain or fragment, phosphorylation of the tandem site 14-3-3 motif (RAASSP, first S of SS underlined) found by proteomic analysis) EDVSPSGPQQPPPLPQKKIVSRAASSPDGFFWTQGSPKPGTASPKLNLSHSETNVHDESHFSYSLSPGNRHHPVFSSSDPLEKAFKGSGHWLPAAGLAGNRGGCGSPGLQCKGAPSASSSQLSVSSQASTGSTQLQLHGLLSNISSKEGTYAKLGGLYTQSLARLVAKCEDLFMGGQKKELHFNENNWSLFKLTCNKPCCDSGDAIYYCATCSEDPGSTYAVKICKAPEPKTVSYCSPSVPVHFNIQQDCGHFVASVPSSMLSSPDAPKDPVPALPTHPPAQEQDCVVVITREVPHQTASDFVRDSAASHQAEPEAYERRVCFLLLQLCNGLEHLKEHGIIHRDLCLENLLLVHCTLQAGPGPAPAPAPAPAPAAAAPPCSSAAPPAGGTLSPAAGPASPEGPREKQLPRLIISNFLKAKQKPGGTPNLQQKKSQARLAPEIVSASQYRKFDEFQTGILIYELLHQPNPFEVRAQLRERDYRQEDLPPLPALSLYSPGLQQLAHLLLEADPIKRIRIGEAKRVLQCLLWGPRRELVQQPGTSEEALCGTLHNWIDMKRALMMMKFAEKAVDRRRGVELEDWLCCQYLASAEPGALLQSLKLLQLL",stoichiometry N,SEC [2],2
Ac-PPPLPQKKIVSRAA[pS]SPDGF-NH2 [PEAK2^tandem-pS826 phosphopeptide (residues 812-831)],binding result,human 14-3-3ε,binds
CrkII SH2 domain (CrkII^SH2) (domain or fragment) DSEERSSWYWGRLSRQEAVALLQGQRHGVFLVRDSSTSPGDYVLSVSENSRVSHYIINSSGPRPPVPPSPAQPPPGVSPSRLRIGDQEFDSLPALLEFYKIHYLDTTTLIEPVSR,stoichiometry N,SEC [3],2
"PEAK1^IDR1 (N-terminally truncated PEAK1, residues 1082-1746) (domain or fragment) LPELEREDGKEDISDPMDPNPCSATYSNLGQSRAAMIPPKQPRQPKGAVDDAIAFGGKTDQEAPNASQPTPPPLPKKMIIRANTEPISKDLQKSMESSLCVMANPTYDIDPNWDASSAGSSISYELKGLDIESYDSLERPLRKERPVPSAANSISSLTTLSIKDRFSNSMESLSSRRGPSCRQGRGIQKPQRQALYRGLENREEVVGKIRSLHTDALKKLAVKCEDLFMAGQKDQLRFGVDSWSDFRLTSDKPCCEAGDAVYYTASYAKDPLNNYAVKICKSKAKESQQYYHSLAVRQSLAVHFNIQQDCGHFLAEVPNRLLPWEDPDDPEKDEDDMEETEEDAKGETDGKNPKPCSEAASSQKENQGVMSKKQRSHVVVITREVPCLTVADFVRDSLAQHGKSPDLYERQVCLLLLQLCSGLEHLKPYHVTHCDLRLENLLLVHYQPGGTAQGFGPAEPSPTSSYPTRLIVSNFSQAKQKSHLVDPEILRDQSRLAPEIITATQYKKCDEFQTGILIYEMLHLPNPFDENPELKEREYTRADLPRIPFRSPYSRGLQQLASCLLNPNPSERILISDAKGILQCLLWGPREDLFQTFTACPSLVQRNTLLQNWLDIKRTLLMIKFAEKSLDREGGISLEDWLCAQYLAFATTDSLSCIVKILQHR",stoichiometry N,SEC [2],2
CrkII SH2-NSH3 construct lacking the CSH3 domain (CrkII^ΔCSH3) (domain or fragment) MAGNFDSEERSSWYWGRLSRQEAVALLQGQRHGVFLVRDSSTSPGDYVLSVSENSRVSHYIINSSGPRPPVPPSPAQPPPGVSPSRLRIGDQEFDSLPALLEFYKIHYLDTTTLIEPVSRSRQGSGVILRQEEAEYVRALFDFNGNDEEDLPFKKGDILRIRDKPEEQWWNAEDSEGKRGMIPVPYVEKYRPASASVSALIGGNQEGSHPQPLGGPEPGPYAQPSVNT,stoichiometry N,SEC [3],2
Ac-PLPPPLPKKILTR-NH2 [PEAK3 54-66 proline-rich motif peptide],binding result,[1],binds
B1,Kd,[1],600 nM
Ac-QPPPLPQKKIVSR-NH2 [PEAK2 809-821 proline-rich motif peptide],binding result,[1],binds
Ac-PLPPPLPKKILTRTQ[pS]LPTRR-NH2 [PEAK3^tandem-pS69 phosphopeptide (residues 54-74)],binding result,human 14-3-3ε,binds
B2,KD after pre-saturating the peptide with 14-3-3ɣ,[4],700 nM
Ac-FSPPPPPPKSRHL-NH2 [PEAK2 709-721 proline-rich motif peptide],Kd,[1],13000 nM
"full length recombinant PEAK3 (PEAK3^FL) from insect cells (natural protein, phosphoserine at 69 (pS69)) MSSPEPPTEPPEPDNPTWSTQPTYSNLGQIRAHLLPSKACRLRTPGSLSTNPEPLPPPLPKKILTRTQSLPTRRTLHPSSIQVQPPRRPFLGSHSVDKSQAAVGPACLPAELTFGPADAPLGLSLRDLHSPEAVHTALAARQLQGLRTIYARLRARLMGGHPGPCHPGHSFRLLDSSPCAESGDALYYRVVRAHEDAWHILVAKVPKPGADVPHPWGLELQASLSPHFNLQGLCGLVPEGTLPGAPWRGAVALAAEVPERTVAQWLAEACTQPPEEFVWAVALLLLQLSAALKFLEAWGAALVELRPENLLLVAPRGCATTGPPRLLLTDFGRVCLQPPGPPGSPGPHAPQLGSLLRALLSLAAPSTTPLAAGLELLAAQLTRLRPSASRTRGALQALLWGPGPELRGRGAPLGPWLRALGPWLRVRRGLLVLRLAERAAGGEAPSLEDWLCCEYLAEATESSMGQALALLWD",stoichiometry N,SEC-MALS,2
Ac-PPPLPKKMIIRAN[pT]EPISKD-NH2 [PEAK1^tandem-pT1165 phosphopeptide (residues 1152-1171)],binding result,human 14-3-3ε,binds
